Laboratory results: patent publication US20260028424A1 (GRANULAR THERAPEUTICS, published 2026)

Key:
cyno c-Kit (SPR) = cyno c-Kit (SPR) (cyno, UniProt F6V858 26-520 (rhesus entry)); assay: SPR, single-cycle kinetics, Cynomolgus C-kit
c-Kit on KU812 cells = molecular target: T1, c-Kit on KU812 cells (UniProt P10721 26-976, limits assumed); assay: flow cytometry on KU812 cells, which carry both c-Kit and CD203c (median fluorescence intensity); signal not separated by target
T1 construct: whole, on cells; also called c-Kit receptor; CD117
T1 sequence (P10721 26-976 limits assumed): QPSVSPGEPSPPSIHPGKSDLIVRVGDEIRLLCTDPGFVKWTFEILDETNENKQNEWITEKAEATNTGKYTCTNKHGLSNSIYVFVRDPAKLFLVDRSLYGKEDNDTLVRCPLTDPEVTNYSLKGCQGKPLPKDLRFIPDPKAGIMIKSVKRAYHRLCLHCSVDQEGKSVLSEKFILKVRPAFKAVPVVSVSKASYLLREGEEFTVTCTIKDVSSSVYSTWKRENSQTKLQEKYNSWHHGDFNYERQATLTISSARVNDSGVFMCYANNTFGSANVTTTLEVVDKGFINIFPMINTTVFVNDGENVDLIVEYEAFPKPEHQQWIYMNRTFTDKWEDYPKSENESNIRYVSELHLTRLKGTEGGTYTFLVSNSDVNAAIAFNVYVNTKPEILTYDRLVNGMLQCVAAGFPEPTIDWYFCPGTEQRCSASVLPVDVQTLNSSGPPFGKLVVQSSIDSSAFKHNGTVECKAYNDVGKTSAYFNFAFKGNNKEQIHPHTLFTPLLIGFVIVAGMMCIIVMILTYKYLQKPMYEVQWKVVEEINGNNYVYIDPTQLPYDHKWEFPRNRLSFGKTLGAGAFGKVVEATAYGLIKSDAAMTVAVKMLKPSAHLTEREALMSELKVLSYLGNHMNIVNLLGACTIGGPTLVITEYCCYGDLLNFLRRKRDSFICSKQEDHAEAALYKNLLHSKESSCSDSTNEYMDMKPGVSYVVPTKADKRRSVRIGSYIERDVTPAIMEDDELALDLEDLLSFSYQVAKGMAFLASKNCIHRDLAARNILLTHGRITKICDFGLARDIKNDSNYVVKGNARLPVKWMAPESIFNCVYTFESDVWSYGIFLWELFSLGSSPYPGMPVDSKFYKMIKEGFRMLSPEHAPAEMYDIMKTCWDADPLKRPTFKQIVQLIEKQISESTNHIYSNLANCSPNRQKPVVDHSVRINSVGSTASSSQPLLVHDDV
Experimental: All treatments were performed on cells seeded in T75 flasks at a seeding density of 0.3e6/ml. Cells were cultured in the presence of 80 ng/ml of SCF and treated with 20 ng/ml of IL3 24 hours prior to antibody staining. Following SCF/IL3 treatment, cells were harvested and stained with live dead stain (Zombie UV Biolegend 423108). Cells were then stained with a titration of anti-CD203c antibodies/bispecifics or respective isotype controls in a 5-fold dilution series starting at 50 μg/mL and detected with Anti human-Fc AF647 antibody (JIR 109-605-098). Samples were subsequently run on a Yeti analyzer, gating on 10K live cells. Subsequent analysis was performed using FlowJo software and data represented as MFI (median fluorescent intensity).

human c-Kit (SPR) = human c-Kit (SPR) (human, UniProt P10721 26-520, limits assumed); assay: SPR, single-cycle kinetics, Human C-kit
Sequence of human c-Kit (SPR) (P10721 26-520 limits assumed): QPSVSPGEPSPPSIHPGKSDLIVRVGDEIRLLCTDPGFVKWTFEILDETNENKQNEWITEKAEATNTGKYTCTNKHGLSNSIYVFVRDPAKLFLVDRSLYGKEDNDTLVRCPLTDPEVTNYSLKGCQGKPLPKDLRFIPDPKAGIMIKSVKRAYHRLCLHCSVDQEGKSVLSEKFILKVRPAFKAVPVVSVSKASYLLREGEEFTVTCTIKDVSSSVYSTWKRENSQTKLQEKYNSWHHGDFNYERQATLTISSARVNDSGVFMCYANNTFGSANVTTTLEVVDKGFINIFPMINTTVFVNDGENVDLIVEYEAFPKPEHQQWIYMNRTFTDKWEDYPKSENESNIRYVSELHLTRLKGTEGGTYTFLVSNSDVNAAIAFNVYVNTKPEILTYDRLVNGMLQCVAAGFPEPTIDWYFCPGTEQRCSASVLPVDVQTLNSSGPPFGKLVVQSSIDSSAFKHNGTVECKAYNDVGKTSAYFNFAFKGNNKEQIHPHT

[1] = molecular target: T2, biotinylated human CD203c (bio-huCD203c, Acro, Cat. nr. H52H4) (human, UniProt O14638 49-875, limits assumed, biotinylated (site not stated)); assay: SPR, single-cycle protocol, Bio-huCD203c; table gives Rmax, Chi2 and KD only
T2 construct: Captured on a Biotin CAPture chip for SPR
T2 sequence (looked up): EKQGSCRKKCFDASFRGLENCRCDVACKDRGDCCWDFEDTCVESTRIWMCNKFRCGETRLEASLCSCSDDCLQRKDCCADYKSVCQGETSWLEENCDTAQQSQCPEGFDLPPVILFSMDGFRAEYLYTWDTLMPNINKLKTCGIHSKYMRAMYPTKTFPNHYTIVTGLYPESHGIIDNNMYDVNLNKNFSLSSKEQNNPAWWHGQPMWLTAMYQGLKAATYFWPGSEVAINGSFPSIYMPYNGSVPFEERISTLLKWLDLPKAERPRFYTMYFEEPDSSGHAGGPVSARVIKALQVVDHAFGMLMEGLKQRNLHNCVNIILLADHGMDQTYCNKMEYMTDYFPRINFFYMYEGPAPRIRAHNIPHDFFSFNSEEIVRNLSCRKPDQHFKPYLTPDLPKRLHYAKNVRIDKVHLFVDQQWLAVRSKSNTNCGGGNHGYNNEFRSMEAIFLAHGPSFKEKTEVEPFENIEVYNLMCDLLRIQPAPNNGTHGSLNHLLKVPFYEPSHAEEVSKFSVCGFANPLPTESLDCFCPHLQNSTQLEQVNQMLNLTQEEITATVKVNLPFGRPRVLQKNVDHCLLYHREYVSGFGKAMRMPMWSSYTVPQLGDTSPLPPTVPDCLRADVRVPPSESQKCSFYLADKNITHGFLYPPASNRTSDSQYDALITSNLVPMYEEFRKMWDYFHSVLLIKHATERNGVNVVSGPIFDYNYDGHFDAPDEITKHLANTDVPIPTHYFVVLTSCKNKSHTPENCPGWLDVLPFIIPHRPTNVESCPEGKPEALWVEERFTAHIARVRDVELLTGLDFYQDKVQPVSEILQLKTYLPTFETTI

[2] = molecular target: T3, biotinylated cynomolgus CD203c (bio-cyCD203c, Icosagen) (cynomolgus monkey, UniProt A0A2K5TKP4 31-874, biotinylated (site not stated)); assay: SPR, single-cycle protocol, Bio-cyCD203c; table gives Rmax, Chi2 and KD only
T3 construct: Captured on a Biotin CAPture chip for SPR; also called cyno CD203c
T3 sequence: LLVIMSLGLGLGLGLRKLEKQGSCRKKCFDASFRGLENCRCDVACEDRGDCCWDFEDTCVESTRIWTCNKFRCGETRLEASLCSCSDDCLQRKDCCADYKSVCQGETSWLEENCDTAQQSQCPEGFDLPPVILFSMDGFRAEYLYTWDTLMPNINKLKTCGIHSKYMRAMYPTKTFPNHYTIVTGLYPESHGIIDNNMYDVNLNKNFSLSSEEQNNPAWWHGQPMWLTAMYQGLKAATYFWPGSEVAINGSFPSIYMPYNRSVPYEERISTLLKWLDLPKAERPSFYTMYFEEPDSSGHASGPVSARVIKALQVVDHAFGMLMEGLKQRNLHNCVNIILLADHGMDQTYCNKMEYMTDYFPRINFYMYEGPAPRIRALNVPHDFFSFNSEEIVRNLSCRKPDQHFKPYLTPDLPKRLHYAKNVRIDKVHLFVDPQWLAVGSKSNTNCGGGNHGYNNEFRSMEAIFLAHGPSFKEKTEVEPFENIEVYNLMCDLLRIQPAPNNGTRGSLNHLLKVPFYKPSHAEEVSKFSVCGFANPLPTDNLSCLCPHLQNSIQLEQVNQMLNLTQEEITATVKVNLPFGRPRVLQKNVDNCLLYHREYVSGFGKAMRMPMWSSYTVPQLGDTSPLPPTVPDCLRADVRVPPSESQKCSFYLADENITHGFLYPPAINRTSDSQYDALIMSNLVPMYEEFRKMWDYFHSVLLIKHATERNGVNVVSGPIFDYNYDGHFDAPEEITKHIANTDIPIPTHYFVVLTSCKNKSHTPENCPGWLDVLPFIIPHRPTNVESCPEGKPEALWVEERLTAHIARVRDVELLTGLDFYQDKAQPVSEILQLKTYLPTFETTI

Sequence of cyno c-Kit (SPR) (chain, as listed by the source): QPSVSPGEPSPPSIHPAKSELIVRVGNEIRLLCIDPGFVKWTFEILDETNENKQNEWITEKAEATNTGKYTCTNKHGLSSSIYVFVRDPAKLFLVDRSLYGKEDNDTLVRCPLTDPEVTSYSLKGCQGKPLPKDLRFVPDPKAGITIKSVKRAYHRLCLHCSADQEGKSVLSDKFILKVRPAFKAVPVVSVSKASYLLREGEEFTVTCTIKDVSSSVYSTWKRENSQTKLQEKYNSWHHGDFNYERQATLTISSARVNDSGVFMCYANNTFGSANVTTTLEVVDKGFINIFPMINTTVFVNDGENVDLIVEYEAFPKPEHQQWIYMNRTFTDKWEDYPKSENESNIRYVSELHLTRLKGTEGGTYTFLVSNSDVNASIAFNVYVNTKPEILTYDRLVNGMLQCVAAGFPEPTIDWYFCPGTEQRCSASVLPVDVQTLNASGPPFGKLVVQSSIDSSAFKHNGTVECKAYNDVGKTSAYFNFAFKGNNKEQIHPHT

| Binder | Kd (cyno c-Kit (SPR)) | koff (cyno c-Kit (SPR)) | kon (cyno c-Kit (SPR)) | EC50 (c-Kit on KU812 cells) | Kd (human c-Kit (SPR)) | koff (human c-Kit (SPR)) | kon (human c-Kit (SPR)) | Kd [1] | Kd [2] |
| --- | --- | --- | --- | --- | --- | --- | --- | --- | --- |
| MH1/F6.12 bispecific (parental, before pI engineering) (bispecific antibody, V domains shown, Knob-in-hole IgG1null bispecific with human Ckappa; also called parental bispecific MH1/F6.12) VH 1: QVQLVQSGAEVKKPGASVKVSCKASGYTFTDYYMNWVRQAPGQGLEWMGRIYPGSGNTYYAQKFQGRVTMTRDTSTSTVYMELSSLRSEDTAVYYCARGVYYYDYWGQGTLVTVSS VH 2: EVQLVQSGAEVKKPGESLKISCKGSGYRFASNWIGWVRQMPGKGLEWMGEIYPGDSNTRYSPSFQGQVTISADKSISTAYLQWSSLKASDTAMYYCARKDYYYGIMDVWGQGTTVTVSS VL: DIQMTQSPSSLSASVGDRVTITCRASQGIRTNLAWFQQKPGKAPKSLIYAASSLQSGVPSRFSGSGSGTDFTLTISSLQPEDFATYYCQQYNSYPRTFGGGTKVEIK | 52.7 nM | 0.0159 s⁻¹ | 301000 M⁻¹ s⁻¹ | 0.548 nM | 45.1 nM | 0.00978 s⁻¹ | 217000 M⁻¹ s⁻¹ | – | – |
| FJ2156_MH1_A x F6_12C huIgG1 KIH (bispecific antibody, V domains shown, also called MH1_A/F6.12_C) VH 1: EVQLVQSGAEVKKPGASVKVSCKASGYTFTDYYMNWVRQAPGQGLEWMGRIYPGSGNTYYAQKFQDRVTMTRDTSTSTVYMELSSLRSEDTAVYYCARGVYYYDYWGQGTLVTVSS VH 2: QVQLVQSGAEVKKPGESLKISCKGSGYRFASNWIGWVRQMPGKGLEWMGEIYPGDSNTRYRPSFQGQVTISADKSISTAYLQWSSLKASDTAMYYCARKDYYYGIMDVWGQGTTVTVSS VL: DIQMTQSPSSLSASVGDRVTITCRASQGIRTNLAWFQQKPGKAPKSLIYAASSLQSGVPSRFSGSGSGTDFTLTISSLQPEDFATYYCQQYNSYPRTFGGGTKVEIK | 91.3 nM | 0.0272 s⁻¹ | 297000 M⁻¹ s⁻¹ | – | 86.1 nM | 0.0171 s⁻¹ | 199000 M⁻¹ s⁻¹ | 84.8 nM | 51.8 nM |
| FJ2156_MH1_A x F6_12B huIgG1 KIH (bispecific antibody, V domains shown, also called MH1_A/F6.12_B) VH 1: EVQLVQSGAEVKKPGASVKVSCKASGYTFTDYYMNWVRQAPGQGLEWMGRIYPGSGNTYYAQKFQDRVTMTRDTSTSTVYMELSSLRSEDTAVYYCARGVYYYDYWGQGTLVTVSS VH 2: QVQLVQSGAEVKKPGESLKISCKGSGYRFASNWIGWVRQMPGKGLQWMGEIYPGDSNTRYSPSFQGQVTISADKSISTAYLQWSSLKASDTAMYYCARKDYYYGIMDVWGQGTTVTVSS VL: DIQMTQSPSSLSASVGDRVTITCRASQGIRTNLAWFQQKPGKAPKSLIYAASSLQSGVPSRFSGSGSGTDFTLTISSLQPEDFATYYCQQYNSYPRTFGGGTKVEIK | 95.5 nM | 0.0277 s⁻¹ | 291000 M⁻¹ s⁻¹ | – | 82.7 nM | 0.0166 s⁻¹ | 201000 M⁻¹ s⁻¹ | 98.5 nM | 68.2 nM |
